The source of these data is patent US12677828B2, “Lipid encasing amphipathic peptides” (Kansas State University Research Foundation, priority 2019, dated 2026).

One data set concerns Aspergillus nidulans. Briefly: Antifungal activity on spore seeded plates (1% skim milk agar), Example 3. In kind it is cell-based. The conditions noted are these: 0.5% Captan in 1:1 propionic acid/soy oil, applied as mixture alone (label Captan) or encased in the named peptide; 5 to 40 μL spotted. On the procedure:
A 0.5% solution of Captan was prepared in a 1:1 mixture of propionic acid and soy oil (final volume of 10 μL for each peptide). The solution was added to 1 mg of dried peptide. After incubating for 15 min, water (490 μL, pH=3) was added dropwise, then sonicated in a bath sonicator for 5 min at 37° C. and allowed to stand for 20 min. The sample was then centrifuged at room temperature for 10 min at 14K×g. At this point each peptide-lipid complex formed a whitish film on the surface of the water. The volume of water was reduced using a Pipetman leaving a final volume of 150 μL. The solution was again vortexed to resuspend the colloids. An illustration of the colloidal particle with the active ingredient distributed throughout the colloidal body is shown in FIG. 3. A number of different controls were tested along with the peptides prepared with all of the components: soy oil only, soy oil+propionic acid, soy oil+propionic acid+Captan. Volumes of from 5 to 40 μL were spotted on spore seeded plates of Aspergillus nidulans grown on 1% skim milk agar gel) yielding 0.33 and 1.33 μg of active agent delivered, respectively (FIG. 4).
In FIG. 4, lawns of A. were seeded just before testing. The actively growing fungus appears greenish yellow in color. For controls (FIG. 5A) soy oil and soy oil+propionic acid (1:1, v/v) were applied directly to the plates at the indicated volumes. […] When the 1:1 soy plus propionic acid was separately encased using the two peptides (FIG. 5B, columns 1 and 2) there was minimal antifungal activity. In FIG. 5C, column 1, Captan was dissolved in the propionic acid prior to mixing with the soy oil.

For data set [1] the following is noted: cited from earlier work.
The test system of another data set is A. nidulans. Kind of data set: Growth inhibition, Captan alone or LEAP encapsulated at different concentrations, Example 4. Type of data set: cell-based, Aspergillus nidulans. The conditions noted are these: 50 μL per plate. The procedure: In this example, the effectiveness of Captan alone or encased in a LEAP colloidal particle on A. nidulans growth was compared. Different concentrations of Captan were tested for growth inhibition when applied directly to freshly seeded fungi growing on 1% milk plates or after encapsulation as a colloidal particle with a LEAP (h5F-L). Captan was dissolved in a formulated (1:1:2) solution containing propionic acid, soy oil, and a pesticide synergist, Piperonyl butoxide (PBO). The resulting active solution was diluted to the following concentrations: 1%, 0.1%, 0.05%, 0.01%, 0.005%, 0.001%. A volume of 50 μL of the 1:1:2 solution containing the fungicide was combined with 1 mmole of dry peptide and then allowed to stand for 20 minutes. Deionized water was then added to the colloidal mixture to raise the total volume to 1 mL, followed by sonicating the mixture for 5 minutes, and then incubating for 60-90 minutes. A volume of 50 μL for each test solution was added to the center of each plate (FIG. 6).

Data set [2] can be described thus: Resizing by extrusion through 100 nm polycarbonate filters. In kind it is physicochemical. The conditions noted are these: extruded through 100 nm polycarbonate filters. The text has this: Given that particle sizes for both peptides were above the nanoscale cutoff of 100 nm, the samples were subjected to resizing by extruding them through 100 nm polycarbonate filters. The […]-L particles were resized to about 80 nm after extrusion (data not shown). The […]-L particles could be resized to about 90 nm.

The nature of data set [3]: Average size and zeta potential by light scattering (ZetaPlus), soy oil colloids. Type of data set: physicochemical. To be noted: peptide colloids in high purity soy oil. On the procedure: Peptide colloids were prepared with either Ac-FLIVI-KKKKK-CO-NH2 (SEQ ID NO:1, where X is F, “h5F-L”) or Ac-VLIVI-KKKKK-CO-NH2 (SEQ ID NO:1, where X is V, “h5V-L”), in high purity soy oil were tested for average size and zeta potential (surface charge) using light scattering on a ZetaPlus particle sizing instrument. A control was prepared using high purity soy oil mixed with water and sonicated.

A short description of data set [4]: Dynamic light scattering of LEAP alone in water (micelles). Type of data set: physicochemical. To be noted: 1 mg peptide in water, no excipient. On the procedure: One mg of the LEAP (Ac-FLIVIKKKK-CONH2, SEQ ID NO:1, where X is F) was dissolved in 500 μL of DDI-RO water. The solution was sonicated for 10 min then allowed to rest at room temperature for approximately 60 min. This solution was further diluted to 10 mL with DDI-RO water prior to dynamic light scattering analysis. Light scattering data was recorded using an Anton-Parr Litesizer 500 instrument and processed using the proprietary ‘Kalliope’ analysis software. The DLS calculations indicated particles with a hydrodynamic diameter of 928.3 nm with peak numerical intensity at 120.09 nm and a polydispersity index of 229.1%.

The nature of data set [5]: Encapsulation of soy oil containing Nile Red dye by peptide. The conditions noted are these: 22 μL soy oil with Nile Red, 480 μL water. In kind it is physicochemical. The procedure:
(§1) Initial encapsulation studies were carried out using high purity soy oil containing a lipid soluble dye, Nile Red. Studies were carried out using FLIVI-KKKKK (SEQ ID NO:1, where X is F). Increasing concentrations of the peptide (see FIG. 2) were prepared in Trifluoroethanol and dried in vacuo. To each tube, 22 μL of soy oil containing Nile Red dye (1 mg/mL) was added and allowed to stand for 15 min. Distilled/deionized water (480 μL) was then added and mixed repeatedly using a vortex mixer over a period of at least 5 min. The solution became somewhat cloudy as the dye containing colloids formed at the higher peptide concentrations. 25% was encapsulated at 0.5 mM peptide concentration with 80% encapsulated by the 1 mM peptide concentration. The colloids formed using the FLIVI-KKKKK (SEQ ID NO:1, where X is F) sequence remain stable in a water solution for extended periods of time (at least 12 months).

Data set [6] in a line: Stability of colloids in water solution. In kind it is physicochemical. To be noted: soy oil colloids. The procedure:
as §1

Data set [7] has as its system leaves of Vicia faba (Fava beans). Briefly: Effects of formulations sprayed on leaves. To be noted: Vicia faba (fava bean), in vivo, 24 h. On the procedure:
In this study, we looked at the effects of the Captan fungicide formulation with and without the LEAP peptide when applied to the leaves of Vicia faba (Fava beans). Three formulations were prepared for this experiment: […]
Deionized water was added to each formulation to a final volume 1 mL and allowed to stand at room temperature for 60-90 min. […]

The test system of a further data set is M. sexta larvae. Briefly: Persistence assay, 3-day and 5-day waiting period before adding larvae. Type of data set: in vivo, Manduca sexta. To be noted: Novarulon 0.02%; both waiting periods (3-day, 5-day) before adding first instar larvae. The procedure:
Subsequently, a persistence assay was conducted to see if the LEAP colloidal particles could protect the active ingredient from environmental degradation. Two studies were conducted, one with a 3-day (FIG. 8) and the other with a 5-day (FIG. 9) waiting period before adding the first instar larvae. The methods used to prepare the LEAP colloidal particle encased materials and the preparation of the coated leaves were identical as described above, except that the leaf discs were allowed to sit in the incubator under the previously described conditions outlined above for the designated time period. After the designated waiting period, 1-day old (first instar) M. sexta larvae were place on the treated leaves. Each day the number of dead larvae were counted. Examining FIGS. 8 and 9, it is clear to see that the LEAP colloidal particles containing the active ingredient Novarulon started killing faster than the Novarulon control. […] Since the Novarulon by itself was still active it appears that coating the Novarulon containing oil droplet with the peptide appears to have been ingested more efficiently such that the lethal dose was achieved more rapidly.

Turning to `O=C1[C@H]2CC=CC[C@H]2C(=O)N1SC(Cl)(Cl)Cl` [Captan, (3aR,7aS)-2-[(Trichloromethyl)sulfanyl]-3a,4,7,7a-tetrahydro-1H-isoindole-1,3(2H)-dione], in the data set on Aspergillus nidulans, the antifungal activity entry is given as “not very effective”. Besides, in [1] (C3 organic acid, propionic acid), the “solubility in propionic acid” value is “good solubility”. The “solubility in water relative to acetone and xylene (fold less)” value in data set [1] (water vs acetone, xylene) is listed as 4000 fold. The growth inhibition entry was “only slight inhibition” in the data set on A. nidulans (0.1% concentration) and “strong growth inhibition” in the data set with A. nidulans (highest concentration (1%), propionic acid, soy oil, PBO (1:1:2)).

As for “Ac-FLIVI-KKKKK-CO-NH2 (Ac-FLIVIKKKKK-NH2) [h5F-L, lipid encasing amphipathic peptide]”, the antifungal activity entry with Aspergillus nidulans was “complete growth inhibition”. For the same compound, the “particle size after extrusion” value in data set [2] is on record as “about 80 nm”. In data set [3], the GSD entry was “GSD 1.618”, the “Median Diam.” value was “Median Diam. 363.8 nm” and the zeta potential was found to be 46±2.5 mV. In [4], this compound returned a peak numerical intensity of 120.09 nm and a polydispersity index of 229.1%. The hydrodynamic diameter in data set [4] (diluted to 10 mL) is given as 928.3 nm.

“FLIVI-KKKKK (XLIVIKKKKK; (1)..(1) X is F or V)”: the results for the encapsulated in data set [5] (0.5 mM peptide concentration) and in [5] (1 mM peptide concentration) were 25% and 80%, respectively. The “colloids remain stable in a water solution” value in data set [6] was “at least 12 months”.

For the compound `CCC(=O)O` [propionic acid], in [7], the leaf damage result is given as “black spots on the leaves after 24 hr”.

For the compound “Ac-VLIVI-KKKKK-CO-NH2 (Ac-VLIVIKKKKK-NH2) [h5V-L, lipid encasing amphipathic peptide]”, the antifungal activity result in the data set on Aspergillus nidulans was “a small amount of antifungal activity”. In addition, the “particle size after extrusion” value in data set [2] is given as “about 90 nm”. In [3], the GSD result is recorded as “GSD 1.528”, the “Median Diam.” value is “Median Diam. 216.5 nm” and the zeta potential stood at 43±1.6 mV.

With “1-[3-chloro-4-phenyl]-3-urea [Novarulon]”, the killing of larvae result in the data set on M. sexta larvae is reported as “still active”.
